We go through one substance from US20220073586A1.

The target of the assay is PD-L1 antigen (coated on 96-well immunoplate) (UniProt Q9NZQ7). The assay is described as follows: single antigen ELISA, PD-L1 coated at 1 ug/mL, detection with anti-hFc-HRP. Background: An ELISA detects its analyte on a solid surface through an enzyme-linked reagent.
Sequence of PD-L1 antigen (coated on 96-well immunoplate) (Q9NZQ7 19-238 limits assumed): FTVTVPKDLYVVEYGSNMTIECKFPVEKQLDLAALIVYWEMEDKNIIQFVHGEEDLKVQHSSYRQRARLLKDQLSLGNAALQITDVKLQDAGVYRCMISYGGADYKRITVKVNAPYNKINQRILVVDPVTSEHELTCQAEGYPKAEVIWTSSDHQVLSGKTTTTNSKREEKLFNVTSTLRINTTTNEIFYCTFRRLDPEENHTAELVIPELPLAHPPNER

Broadly, the EC50 (read off the curve) is the midpoint of the concentration-response curve. Lower therefore signals an effect from little substance. Consider “Tecentriq (Genetech, atezolizumab, anti-PD-L1 antibody)”, for which the EC50 (read off the curve) amounted to 0.03 µg/mL.
